Results published in article PMC4477667.

Target: Deinococcus radiodurans RNase J, wild type, full-length (residues 1-559) (Deinococcus radiodurans)
Assay: SEC

Deinococcus radiodurans RNase J, wild type, full-length (residues 1-559) (enzyme)
stoichiometry N: 2
